Data taken from patent US9388406B2, “System useful for reporting protein-protein interactions in the bacterial periplasm” (Cornell University, priority 2008, dated 2016).

Key:
scFv-GCN4 = assay: split β-lactamase protein complementation assay in the periplasm, MBC on ampicillin, scFv-GCN4 with antigen; type: cell-based; details: E. coli MC4100; antigen on α Bla fragment paired with scFv-GCN4; versus α-Jun negative control
Description: (§1) E. coli MC4100 cells were co-transformed with plasmids pDMB-P1-ωBLA (CmR) and aGS-P2 (KanR), where P1 and P2 represent proteins of interest. Cells were grown overnight at 37° C. in LB medium containing 20 μg/mL chloramphenicol (Cm) and 50 μg/mL kanamycin (Kan). Screening of cells on LB agar was performed by first normalizing overnight cultures by OD600 and then spotting 5 μL, of serially diluted (10-10^6-fold) cells on LB agar plates with […] of ampicillin (Amp). In all cases, the plates were incubated 16 h at 37° C. and then imaged using a ChemiDoc System (BioRad). […] The minimum bacteriocidal concentration was determined as the minimum Amp concentration at which no colonies appeared on the plates.
(§2) It was hypothesized that detecting protein interactions in the periplasm can be used to engineer antibody fragments with in vivo activity in the periplasm. […] The approach used in the present invention was to fuse known interacting protein domains to genes encoding two split β-lactamase fragments using a two-plasmid system (Wehrman, T., et al., “Protein-protein Interactions Monitored in Mammalian Cells Via Complementation of Beta-lactamase Enzyme Fragments,” Proc Natl Acad Sci USA 99:3469-3474 (2002), which is hereby incorporated by reference in its entirety)(see FIG. 2A). […]

Jun [1] = molecular target: T1, Jun (Homo sapiens, UniProt P05412); assay: split β-lactamase protein complementation assay in the periplasm, spot plating on ampicillin, Fos/Jun leucine zippers; type: cell-based; details: Fos on ω fragment, Jun on α fragment of Bla; negative control GCN4
T1 sequence (P05412 280-308 limits assumed, species assumed): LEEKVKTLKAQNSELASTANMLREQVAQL
Description: as §1, §2

Jun [2] = molecular target: T1, Jun; details: Fos/Jun leucine zippers; Pernelle et al. 1993; cited from earlier work

Row | Molecule | higher MBC (minimum bacteriocidal concentration) on ampicillin (scFv-GCN4) | ampicillin activity in the PCA (Jun [1]) | KD of their interaction (Jun [2])
1 | GCN4-PP: double proline mutant of the GCN4 leucine zipper with reduced homodimerization, antigen of scFv-GCN4 (protein, left off: small tags and cut ends) HPETLVKVKDAEDQLGARVGYIELDLNSGKILESFRPEERFPMMSTFKVLLCGAVLSRVDAGQEQLGRRIHYSQNDLVEYSPVTEKHLTDGMTVRELCSAAITMSDNTAANLLLTTIGGPKELTAFLHNMGDHVTRLDRWEPELNEAIPNDERDTTMPAAMATTLRKLLTGELLEPKVEELLPKNYHLENEVARL | 16 fold |  | 
2 | Fos: Fos leucine zipper, fused to the ω fragment of β-lactamase; interacts with Jun (protein) LQAETDQLEDEKSALQTEIANLLKEKEKLGGGGSGGGGSGGGGSNGRTLASRQQLIDWMEADKVAGPLLRSALPAGWFIADKSGAGERGSRGIIAALGPDGKPSRIVVIYTTGSQATMDERNRQIAEIGASLIKHW |  | well above that of the negative control | nanomolar range
